Experimental data taken from the MegaScale stability set (Tsuboyama et al. 2023).

B1: r16_88_TrROS_Hall (parent)
chain: EVIELKIKFKTPEQREKLKEIAKKLNAEVVEEKDGEVIIRFKTPEQAERALKEAEKLGAEVEL

Variants of: B1
Assay: folding stability dG (cDNA display proteolysis); higher = more stable
Settings: PBS, room temperature

Folding stability dG [kcal/mol] of substitutions, site by site:
Q46: Y 4.17 | C 4.41 | D 4.37 | V 4.38 | F 4.43 | H 4.23 | G 4.48 | I 4.15 | L 4.28 | T 4.25 | S 4.47 | W 4.2 | P 4.44 | R 4 | N 4.26 | K 4.21 | A 4.28 | E 4.18 | M 4.15
A59: G 4.18 | F 4.59 | H 4.43 | C 4.17 | D 4.28 | E 4.23
E45: S 4.29 | K 4.42 | C 4.77 | H 4.08 | V 4.24 | Q 4.38 | I 4.5 | P 4.16 | F 4.44 | R 4.37 | Y 4.73 | A 4.33 | T 4.61 | D 4.22 | G 4.38 | L 4.29 | M 4.46 | N 4.39 | W 4.37
L57: W 4.6 | P 3.32 | H 4.26 | C 4.2 | S 4.26 | G 3.96 | K 3.5 | A 4.15 | E 4.36 | R 3.57 | V 4.5 | Q 4.25 | I 4.43 | T 4.04 | Y 4.28 | F 4.33 | M 4.31 | D 4.08 | N 4.35
K52: T 4.23 | H 4.31 | I 4.03 | G 4.44 | R 4.45 | N 4.26 | Y 4.67 | S 4.28 | A 4.52 | F 4.62 | L 4.44 | E 4.07 | Q 4.1 | C 4.33 | D 4.25 | M 4.28 | P 3.91 | V 4.2 | W 4.43
E48: N 4.62 | D 4.47 | S 4.39 | I 4.17 | F 4.72 | R 4.25 | T 4.28 | W 4.47 | Y 4.67 | K 4.67 | A 4.5 | V 4.17 | G 4.28 | M 4.46 | L 4.29 | H 4.52 | P 3.89 | Q 4.37 | C 4.52
E55: I 4.46 | N 4.42 | T 4.31 | R 4.57 | L 4.45 | D 4.27 | Q 4.48 | P 3.67 | S 4.51 | W 4.58 | H 4.21 | C 4.43 | F 4.59 | Y 4.66 | M 4.37 | A 4.43 | K 4.3 | G 4.22 | V 4.51
T43: Q 4.3 | V 4.27 | Y 4.43 | G 4.08 | K 4.36 | E 3.61 | I 4.48 | P 3.06 | S 4.53 | A 4.45 | H 4.57 | W 4.29 | N 3.86 | M 4.56 | L 4.67 | F 4.41 | C 4.63 | D 3.85 | R 4.06
F41: T 3.73 | Q 2.23 | R 1.04 | W 4 | S 4.03 | Y 4.23 | V 4.09
L51: Y 4.08 | D 3.96 | N 4.3 | S 4.59 | K 4.61 | R 4.61 | Q 4.53 | V 4.39 | M 4.4 | G 4.45 | I 4.41 | P 2.79 | C 4.41 | H 4.79 | A 4.43 | W 4.25 | F 4.4 | T 4.76
A47: F 4.52 | M 4.39 | E 4.18 | T 4.34 | S 4.39 | V 4.63 | W 4.78 | K 4.65 | Y 4.79 | Q 4.8 | D 3.16 | I 4.51 | L 4.65 | P 3.25 | N 3.68 | H 4.42 | R 4.53 | G 4.28 | C 4.46
A50: Y 4.43 | Q 3.84 | I 4.4 | L 4.28 | F 4.38 | D 2.77 | C 4.36 | S 3.9 | H 3.68 | E 3.34 | W 4.69 | R 2.59 | V 4.41 | T 4.26 | M 4.3 | N 3.58 | K 2.55 | P 2.96 | G 4.46
K56: G 4.53 | S 4.51 | C 4.41 | L 4.5 | A 4.49 | D 4.21 | F 4.23 | Y 4.41 | E 4.28 | P 4.5 | N 4.44 | H 4.33 | R 4.15 | M 4.57 | Q 4.43 | W 4.26 | V 4.45 | I 4.52 | T 4.48
E53: K 4.02 | Y 4.3 | L 4.61 | Q 4.42 | H 4.17 | D 4.34 | A 4.13 | T 4.03 | I 4.27 | M 4.39 | W 4.37 | F 4.49 | G 4.07 | C 4.4 | N 3.87 | R 4.03 | V 4.36 | P 3.08 | S 4.21
A54: N 3.65 | I 4.43 | T 4.19 | M 4.44 | V 4.43 | S 4.45 | P 2.86 | H 3.5 | F 4.35 | L 4.35 | E 3.03 | G 4.09 | K 3.51 | Y 4.16 | C 4.41 | D 2.86 | R 3.4 | W 4.08 | Q 3.6
P44: F 4.54 | C 4.66 | S 4.49 | N 4.55 | T 4.46 | H 4.75 | E 4.1 | A 4.58 | W 4.58 | Y 4.39 | I 4.34 | L 4.65 | G 4.37 | K 4.61 | R 4.18 | V 4.35 | D 4.15 | M 4.59 | Q 4.56
R49: I 4.49 | K 4.15 | Y 4.93 | S 4.48 | M 4.46 | Q 4.41 | A 4.37 | G 4.37 | L 4.53 | H 4.4 | C 4.42 | E 4.52 | N 4.35 | P 4.17 | V 4.5 | T 4.04 | F 4.76 | D 4.56
K42: C 4.29 | P 3.79 | E 3.81 | A 4.1 | H 4.1 | R 4.62 | Y 4.36 | G 4.03 | S 4.23 | I 4.37 | D 4.01 | V 4.19 | F 4.33 | M 4.18 | T 4.13 | Q 3.95 | N 4.18 | W 4.26 | L 4.13
G58: A 4.3 | E 4.12 | D 4.42 | L 4.35 | Q 4.25 | N 4.25 | Y 4.25 | V 4.21 | C 4.28 | P 3.83 | W 4.21 | S 4.43 | M 4.33 | K 4.25 | H 4.27 | F 4.24 | T 4.26 | R 4.27 | I 4.22
